Values quoted from earlier work, collected in article PMC13051815.

Assays:
[1] = molecular target: Bim BH3 peptide 86-111 (Homo sapiens) (UniProt O43521); assay: ITC
[2] = molecular target: Bim BH3 peptide 86-111 (Homo sapiens) (UniProt O43521); assay: fluorescence polarization

Sequence of UniProt O43521 (O43521 86-111): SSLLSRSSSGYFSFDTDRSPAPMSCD

- Kd [1]: 400 nM
- Kd [2]: > 30000 nM
Substance: Hsp70 NBD (from UniProt P0DMV8)
